These results are taken from US20030091568A1, “Inhibitors for the formation of soluble human CD23” (priority 2000, published 2003).

The target in assay [1] is T1, ADAM9 (Mus musculus, UniProt Q61072).
T1 construct: expressed in transfected cells; host or cells: CHO AA8 Tet-Off cells (Clontech), clone 3, co-expressing human CD23b
T1 sequence (Q61072 206-845 limits assumed): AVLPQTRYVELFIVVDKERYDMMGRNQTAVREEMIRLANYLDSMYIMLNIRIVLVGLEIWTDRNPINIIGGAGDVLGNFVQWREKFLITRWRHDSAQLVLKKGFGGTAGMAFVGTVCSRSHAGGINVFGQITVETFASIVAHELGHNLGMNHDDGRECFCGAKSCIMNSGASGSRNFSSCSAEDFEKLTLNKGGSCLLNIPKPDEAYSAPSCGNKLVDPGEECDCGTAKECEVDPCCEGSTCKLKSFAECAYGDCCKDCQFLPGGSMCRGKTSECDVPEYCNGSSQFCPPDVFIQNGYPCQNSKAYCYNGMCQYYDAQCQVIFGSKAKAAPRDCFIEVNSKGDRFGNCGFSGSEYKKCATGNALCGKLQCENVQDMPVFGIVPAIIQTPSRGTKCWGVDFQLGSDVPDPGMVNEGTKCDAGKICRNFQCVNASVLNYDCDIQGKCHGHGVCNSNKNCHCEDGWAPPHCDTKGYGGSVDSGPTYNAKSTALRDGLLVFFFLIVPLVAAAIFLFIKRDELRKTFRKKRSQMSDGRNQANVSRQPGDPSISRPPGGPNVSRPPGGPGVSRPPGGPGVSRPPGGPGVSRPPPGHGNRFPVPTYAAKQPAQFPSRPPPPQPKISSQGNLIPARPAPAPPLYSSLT
The assay can be described thus: CD23 shedding in CHO AA8 clone 3 cells with tet-regulated ADAM9 "On" (s-CD23 ELISA). The format is cell-based, murine. The note with it: CHO AA8 clone 3, absence of tetracycline (ADAM9 "On"), 16 hours; 2 μM batimastat or 20 nM-1 μM TIMP; FIG. 3A. On the procedure: CHO AA8 cells (Clontech), which constitutively express human CD23b and a tet regulatable ADAM9 (clone 3, described above), were cultured in the absence of tetracycline (ADAM9 expression “On”) as well as the presence or absence of the metalloproteinase inhibitor batimastat (BB-94, British Biotechnology) as a broad spectrum MMP inhibitor, as well as various concentrations of either TIMP-1, TIMP-2 or TIMP-3. After 16 hours, aliquots of the respective culture supernatants were analysed by ELISA for the formation of s-CD23 (The Binding Site).
[…] cells were cultured in the presence (ADAM9 expression “Off”) or absence (ADAM9 expression “On”) of tetracylin (Tc). Under both conditions, the influence of batimastat (BB-94) on CD23 shedding was analyzed. The concentration of s-CD23 in the culture supernatants was determined by ELISA. In parallel, the produced s-CD23 cleavage products were analyzed by Western blot analyses (FIG. 4). Untransfected CHO AA8 cells (WT) were used as a negative control in the ELISA assays. In the absence of Tc (ADAM9 expression “On”), about 2-3 times the amount of s-CD23 was produced compared to cells kept in the presence of Tc (ADAM9 expression “Off”). […] The 33 kDa form of s-CD23 and, in minor amounts, the 25 kDa cleavage fragment were detected by Western blot analyses. […]

Assay [2] has as its target T2, ADAM10 (Homo sapiens, UniProt O14672).
T2 sequence (O14672 214-748): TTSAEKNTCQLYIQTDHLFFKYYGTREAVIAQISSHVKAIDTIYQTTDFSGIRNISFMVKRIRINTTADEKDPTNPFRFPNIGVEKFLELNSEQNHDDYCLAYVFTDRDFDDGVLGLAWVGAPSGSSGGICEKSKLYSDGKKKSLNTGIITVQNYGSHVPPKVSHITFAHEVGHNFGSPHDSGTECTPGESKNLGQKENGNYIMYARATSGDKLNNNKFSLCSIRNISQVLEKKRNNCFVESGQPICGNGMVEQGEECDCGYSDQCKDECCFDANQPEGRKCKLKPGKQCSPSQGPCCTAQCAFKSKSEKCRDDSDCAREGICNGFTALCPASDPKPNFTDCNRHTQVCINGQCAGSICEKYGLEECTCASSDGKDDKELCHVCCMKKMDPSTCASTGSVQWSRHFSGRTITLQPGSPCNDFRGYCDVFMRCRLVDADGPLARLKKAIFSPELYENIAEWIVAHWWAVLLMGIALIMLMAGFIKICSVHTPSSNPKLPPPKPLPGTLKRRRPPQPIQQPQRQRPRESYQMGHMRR
Particulars: stated as known; cited from earlier work.

As for “TIMP-1: tissue inhibitor of metalloproteinases 1”, the “block of proteolytic release of CD23 from the membrane (formation of s-CD23 by ELISA)” value in assay [1] is given as “could not be inhibited”. Also, the “inhibition of ADAM10” value in assay [2] is recorded as “inhibited”.

B1: TIMP-3: tissue inhibitor of metalloproteinases 3 (protein, UniProt P35625 24-211, looked up)
Metalloproteinase inhibitor 3: CTCSPSHPQDAFCNSDIVIRAKVVGKKLVKEGPFGTLVYTIKQMKMYRGFTKMPHVQYIHTEASESLCGLKLEVNKYQYLLTGRVYDGKMYTGLCNFVERWDQLTLSQRKGLNYRYHLGCNCKIKSCYYLPCFVTSKNECLWTDMLSNFGYPGYQSKHYACIRQKGGYCSWYRGWAPPDKSIINATDP
For B1, the “block of proteolytic release of CD23 from the membrane (formation of s-CD23 by ELISA)” value in assay [1] is “could not be inhibited”. Further, in assay [2], the “inhibition of ADAM10” value is “inhibited”.
